The values that follow come from US8309791.

What all share (experiment): cell_activity
The subject of data set [1] is Passport (PP, PPTN) transposase PTs1. Conditions: colony formation in PEGE cells.
A further data set relates to Tol2 transposase. Conditions: colony formation in PEGE cells.
The test system of data set [2] is rtTR-KRAB2S-M2 (Escherichia coli / Homo sapiens fusion?). The settings on record: tet-off version, shCFTR1 expression with vs without doxycycline in pig fibroblasts.
For data set [3], the system named is tTR-KRAB (Escherichia coli / Homo sapiens fusion?). The settings on record: tet-on version, shCFTR1 expression with vs without doxycycline in pig fibroblasts.
Data set [4] relates to Sleeping Beauty transposase SB11 (synthetic (reconstructed fish Tc1-like)?). The settings on record: colony formation in PEGE cells.
In another data set the test system is piggyBac transposase. Conditions: colony formation in PEGE cells; TTAA target.

Consider “PP transposon inverted repeats (pPTnP-PTK)”, for which, in data set [1], the activity (fold over no transposase) was 5.

“mini Tol2 transposon inverted repeats (pGTol2P-PTK)” came in with an activity (fold over no transposase) in the data set on Tol2 transposase of 21.

Regarding tet operator (TRE), the activity in data set [2] is 67 fold change; in data set [3] it was 64 fold change.

On to “SB transposon inverted terminal repeats (pT2-FloxP-PTK, pKT2P-PTK)”, for which the activity (fold over no transposase) in data set [4] came out at 13.5.

Take piggyBac LTR1/LTR2 (pPBTP-PTK): the activity (fold over no transposase) in the data set with piggyBac transposase came to 28.
